Where a chain is given by its changes, count along the chain named. Numbers in names are those of the source.
T1: human FcγRIIa (131H), His- and GST-tagged (human, UniProt P12318 34-217)
T1 construct: also called H131 FcγRIIa; HIIa; not shown: 6xHis and GST tags of the pTT5 vector
T1 sequence (looked up): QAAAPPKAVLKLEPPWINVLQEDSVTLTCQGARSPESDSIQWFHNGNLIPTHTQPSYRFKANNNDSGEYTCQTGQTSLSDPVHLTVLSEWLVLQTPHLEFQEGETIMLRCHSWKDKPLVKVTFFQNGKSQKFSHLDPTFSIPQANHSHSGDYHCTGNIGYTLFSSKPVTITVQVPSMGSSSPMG

T2: human FcγRIIb receptor protein (R&D Systems) (human, UniProt P31994 46-217)
T2 construct: Bought protein injected over captured antibody in Biacore; also called CD32b
T2 sequence (looked up): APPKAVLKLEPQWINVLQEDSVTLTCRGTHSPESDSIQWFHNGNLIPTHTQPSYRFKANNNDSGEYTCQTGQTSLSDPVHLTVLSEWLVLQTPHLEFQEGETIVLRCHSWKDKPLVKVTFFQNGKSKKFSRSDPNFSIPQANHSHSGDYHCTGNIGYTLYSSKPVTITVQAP

T3: human FcγRIIa (131R), His- and GST-tagged (human, UniProt P12318 34-217)
T3 construct: Expressed in HEK293T cells, purified by nickel chromatography; also called R131 FcγRIIa; not shown: 6xHis and GST tags of the pTT5 vector
T3 sequence (looked up): T1 sequence (looked up) with H134R

T4: mFcγRIV
T4 construct: also called mouse FcγRIV; not shown: C-terminal His and GST tags (named only on our card)
T4 chain: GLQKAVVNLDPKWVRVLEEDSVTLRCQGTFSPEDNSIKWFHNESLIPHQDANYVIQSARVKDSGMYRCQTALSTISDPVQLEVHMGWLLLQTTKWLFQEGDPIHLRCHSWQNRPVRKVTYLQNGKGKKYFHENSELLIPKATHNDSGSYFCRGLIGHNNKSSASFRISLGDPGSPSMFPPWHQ

T5: cynoFcγRIIb (Macaca fascicularis, UniProt A0A140HDP4)
T5 construct: extracellular region, C-terminal His- and GST-tag; also called cynomolgus monkey FcγRIIb
T5 sequence (receptor extracellular region): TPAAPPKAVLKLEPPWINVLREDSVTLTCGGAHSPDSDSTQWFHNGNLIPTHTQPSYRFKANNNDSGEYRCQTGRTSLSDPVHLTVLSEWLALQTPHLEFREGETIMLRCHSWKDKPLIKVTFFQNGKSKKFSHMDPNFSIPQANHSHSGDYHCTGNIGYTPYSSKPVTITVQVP

T6: mFcγRIIb (Mus musculus, UniProt P08101)
T6 construct: extracellular region, C-terminal His- and GST-tag; also called mouse FcγRII
T6 sequence (receptor extracellular region, looked up): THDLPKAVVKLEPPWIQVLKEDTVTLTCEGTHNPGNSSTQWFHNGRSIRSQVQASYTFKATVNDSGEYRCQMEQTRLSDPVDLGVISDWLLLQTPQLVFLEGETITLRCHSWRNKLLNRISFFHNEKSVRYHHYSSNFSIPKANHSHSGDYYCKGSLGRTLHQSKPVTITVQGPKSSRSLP

B1: G236D (antibody, human IgG1, kappa)
heavy: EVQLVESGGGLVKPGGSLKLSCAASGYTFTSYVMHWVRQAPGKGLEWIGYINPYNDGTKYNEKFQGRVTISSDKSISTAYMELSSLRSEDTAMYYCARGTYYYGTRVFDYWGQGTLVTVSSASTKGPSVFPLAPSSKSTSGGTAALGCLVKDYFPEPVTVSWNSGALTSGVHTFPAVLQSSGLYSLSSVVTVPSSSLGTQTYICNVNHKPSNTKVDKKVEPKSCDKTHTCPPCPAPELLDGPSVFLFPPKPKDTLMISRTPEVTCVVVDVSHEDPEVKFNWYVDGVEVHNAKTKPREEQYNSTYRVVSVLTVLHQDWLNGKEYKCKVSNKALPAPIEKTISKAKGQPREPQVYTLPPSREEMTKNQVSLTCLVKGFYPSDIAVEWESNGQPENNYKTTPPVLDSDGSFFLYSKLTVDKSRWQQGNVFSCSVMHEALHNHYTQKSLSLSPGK
light: DIVMTQSPATLSLSPGERATLSCRSSKSLQNVNGNTYLYWFQQKPGQSPQLLIYRMSNLNSGVPDRFSGSGSGTEFTLTISSLEPEDFAVYYCMQHLEYPITFGAGTKLEIKRTVAAPSVFIFPPSDEQLKSGTASVVCLLNNFYPREAKVQWKVDNALQSGNSQESVTEQDSKDSTYSLSSTLTLSKADYEKHKVYACEVTHQGLSSPVTKSFNRGEC
notes: HuAM4G7 anti-CD19 IgG1 (m1) with this Fc substitution, EU index; copies: 2 + 2
B2: L234W/G236D/S239E/S267E (antibody, human IgG1, kappa)
heavy: EVQLVESGGGLVKPGGSLKLSCAASGYTFTSYVMHWVRQAPGKGLEWIGYINPYNDGTKYNEKFQGRVTISSDKSISTAYMELSSLRSEDTAMYYCARGTYYYGTRVFDYWGQGTLVTVSSASTKGPSVFPLAPSSKSTSGGTAALGCLVKDYFPEPVTVSWNSGALTSGVHTFPAVLQSSGLYSLSSVVTVPSSSLGTQTYICNVNHKPSNTKVDKKVEPKSCDKTHTCPPCPAPEWLDGPEVFLFPPKPKDTLMISRTPEVTCVVVDVEHEDPEVKFNWYVDGVEVHNAKTKPREEQYNSTYRVVSVLTVLHQDWLNGKEYKCKVSNKALPAPIEKTISKAKGQPREPQVYTLPPSREEMTKNQVSLTCLVKGFYPSDIAVEWESNGQPENNYKTTPPVLDSDGSFFLYSKLTVDKSRWQQGNVFSCSVMHEALHNHYTQKSLSLSPGK
light: B1 light
notes: HuAM4G7 anti-CD19 IgG1 (m1) with these Fc substitutions, EU index; copies: 2 + 2
B3: L328E (antibody, human IgG1, kappa)
heavy: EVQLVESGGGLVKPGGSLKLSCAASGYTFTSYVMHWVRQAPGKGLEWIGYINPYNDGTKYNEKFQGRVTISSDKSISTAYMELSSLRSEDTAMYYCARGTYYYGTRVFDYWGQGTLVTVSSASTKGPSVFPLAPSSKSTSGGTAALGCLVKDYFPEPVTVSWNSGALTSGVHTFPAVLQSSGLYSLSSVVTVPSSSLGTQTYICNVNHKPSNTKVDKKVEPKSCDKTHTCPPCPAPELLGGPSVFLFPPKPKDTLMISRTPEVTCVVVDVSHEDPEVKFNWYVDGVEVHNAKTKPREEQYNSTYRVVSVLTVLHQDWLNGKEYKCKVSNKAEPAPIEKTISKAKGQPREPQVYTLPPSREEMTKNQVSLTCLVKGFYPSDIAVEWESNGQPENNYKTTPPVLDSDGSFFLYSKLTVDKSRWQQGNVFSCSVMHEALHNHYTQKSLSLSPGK
light: B1 light
notes: as for B1
B4: anti-CD19 antibody HuAM4G7 IgG1 S239D/S267E (antibody)
heavy: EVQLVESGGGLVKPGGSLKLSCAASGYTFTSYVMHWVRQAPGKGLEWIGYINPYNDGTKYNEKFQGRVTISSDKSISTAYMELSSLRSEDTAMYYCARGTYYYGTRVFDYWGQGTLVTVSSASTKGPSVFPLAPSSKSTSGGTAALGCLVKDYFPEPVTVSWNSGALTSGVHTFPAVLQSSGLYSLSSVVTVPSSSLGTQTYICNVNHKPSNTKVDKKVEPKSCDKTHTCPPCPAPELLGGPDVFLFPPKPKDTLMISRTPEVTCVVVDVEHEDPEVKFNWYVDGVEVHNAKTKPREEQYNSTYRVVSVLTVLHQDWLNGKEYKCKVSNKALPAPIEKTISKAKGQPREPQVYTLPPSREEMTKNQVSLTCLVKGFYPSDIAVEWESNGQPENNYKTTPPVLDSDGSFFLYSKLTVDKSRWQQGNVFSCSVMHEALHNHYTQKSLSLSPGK
light: B1 light
notes: Positions in EU numbering; copies: 2 + 2
B5: A330D (antibody, human IgG1, kappa)
heavy: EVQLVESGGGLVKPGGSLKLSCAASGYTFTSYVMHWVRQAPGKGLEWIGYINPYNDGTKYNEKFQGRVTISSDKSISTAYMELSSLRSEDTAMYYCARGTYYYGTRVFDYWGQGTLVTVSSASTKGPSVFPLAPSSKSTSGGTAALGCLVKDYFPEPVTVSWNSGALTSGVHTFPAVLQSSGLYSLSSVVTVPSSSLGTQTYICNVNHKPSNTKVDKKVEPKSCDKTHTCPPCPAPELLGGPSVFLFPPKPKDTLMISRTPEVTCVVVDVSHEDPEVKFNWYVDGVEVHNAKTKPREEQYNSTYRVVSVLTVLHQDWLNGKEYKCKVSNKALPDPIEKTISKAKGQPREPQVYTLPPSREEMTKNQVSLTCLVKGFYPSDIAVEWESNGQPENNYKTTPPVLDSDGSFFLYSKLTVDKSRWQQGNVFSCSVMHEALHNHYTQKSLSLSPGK
light: B1 light
notes: as for B1
B6: S239D (antibody, human IgG1, kappa)
heavy: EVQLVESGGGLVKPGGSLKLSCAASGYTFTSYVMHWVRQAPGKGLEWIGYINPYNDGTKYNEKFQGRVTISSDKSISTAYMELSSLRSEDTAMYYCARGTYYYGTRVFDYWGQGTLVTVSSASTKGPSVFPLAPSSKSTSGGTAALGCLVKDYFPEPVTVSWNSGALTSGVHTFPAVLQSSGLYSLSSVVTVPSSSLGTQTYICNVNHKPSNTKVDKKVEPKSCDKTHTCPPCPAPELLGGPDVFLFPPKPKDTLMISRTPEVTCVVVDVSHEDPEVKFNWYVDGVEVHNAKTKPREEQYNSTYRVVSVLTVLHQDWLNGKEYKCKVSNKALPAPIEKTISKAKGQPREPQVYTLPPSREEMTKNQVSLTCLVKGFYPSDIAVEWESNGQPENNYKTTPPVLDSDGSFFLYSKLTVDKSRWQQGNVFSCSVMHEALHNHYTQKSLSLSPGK
light: B1 light
notes: as for B1
B7: A330H (antibody, human IgG1, kappa)
heavy: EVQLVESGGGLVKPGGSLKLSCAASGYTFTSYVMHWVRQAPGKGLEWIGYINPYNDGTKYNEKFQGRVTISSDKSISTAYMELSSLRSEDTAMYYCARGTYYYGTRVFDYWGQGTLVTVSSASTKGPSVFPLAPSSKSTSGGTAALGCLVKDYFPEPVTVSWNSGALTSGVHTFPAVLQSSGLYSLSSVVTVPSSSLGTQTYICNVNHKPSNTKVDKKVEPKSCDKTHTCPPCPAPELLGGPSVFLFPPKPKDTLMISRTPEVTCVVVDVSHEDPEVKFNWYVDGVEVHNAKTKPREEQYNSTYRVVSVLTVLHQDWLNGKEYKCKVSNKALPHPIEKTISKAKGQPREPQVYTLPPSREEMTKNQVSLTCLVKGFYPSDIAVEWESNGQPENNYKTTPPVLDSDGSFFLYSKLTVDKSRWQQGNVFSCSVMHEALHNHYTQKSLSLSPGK
light: B1 light
notes: as for B1

Columns and labels:
[1] = target: T7, human FcγRIIIa (158F), His- and GST-tagged (human, UniProt P08637 17-208); experiment: SPR
T7 construct: also called F158 FcγRIIIa; not shown: 6xHis and GST tags of the pTT5 vector

[2] = target: T8, human FcγRI receptor protein (R&D Systems) (human, UniProt P12314 16-288); experiment: SPR
T8 construct: also called soluble FcγRI; solFcγRI

[3] = target: T1, human FcγRIIa (131H), His- and …; experiment: SPR
[4] = target: T2, human FcγRIIb receptor protein (R&D …); experiment: SPR
[5] = target: T9, human FcγRIIIa (158V), His- and GST-tagged (human, UniProt P08637 17-208); experiment: SPR
T9 construct: also called V158 FcγRIIIa; VIIIa; not shown: 6xHis and GST tags of the pTT5 vector

[6] = target: T3, human FcγRIIa (131R), His- and …; experiment: SPR
mFcγRIV [7] = target: T4, mFcγRIV; experiment: SPR, off-rate
cynoFcγRIIb [8] = target: T5, cynoFcγRIIb; experiment: SPR, off-rate
cynoFcγRIIIa [9] = target: T10, cynoFcγRIIIa (Macaca fascicularis, UniProt Q8SPW2); experiment: SPR, off-rate
T10 construct: extracellular region, C-terminal His- and GST-tag; also called cynomolgus monkey FcγRIIIa

mFcγRIIb [10] = target: T6, mFcγRIIb; experiment: SPR, off-rate
mFcγRIIb [11] = target: T6, mFcγRIIb; experiment: SPR
cynoFcγRIIb [12] = target: T5, cynoFcγRIIb; experiment: SPR, Kd
Protocol: Variants were screened for receptor affinity using Biacore™ technology, also referred to as Biacore herein, a surface plasmon resonance (SPR) based technology for studying biomolecular interactions in real time. SPR measurements were performed using a Biacore 3000 instrument (Biacore, Piscataway, N.J.). A protein A/G (Pierce Biotechnology) CM5 biosensor chip (Biacore) was generated using a standard primary amine coupling protocol. All measurements were performed using HBS-EP buffer (10 mM HEPES pH 7.4, 0.15 M NaCl, 3 mM EDTA, 0.005% vol/vol surfactant P20, Biacore). Antibodies at 20 nM or 50 nM in HBS-EP buffer were immobilized on the protein A/G surface and FcγRs were injected. After each cycle, the surface was regenerated by injecting glycine buffer (10 mM, pH 1.5). Data were processed by zeroing time and response before the injection of FcγR and by subtracting appropriate nonspecific signals (response of reference channel and injection of running buffer). Kinetic analyses were performed by global fitting of binding data with a 1:1 Langmuir binding model using BIAevaluation software (Biacore).
Variant antibodies were tested for their affinity to mouse or cynologous monkey FcγRs using Biacore SPR as described above. Specifically, antibodies were first immobilized on a protein A/G chip to high density, and then followed by injections of the extracellular domain of the mouse or cynologous monkey FcγR of interest. Both association and dissociation phases were tracked in real time using the Biacore technology.

mFcγRIV [13] = target: T4, mFcγRIV; experiment: SPR
cynoFcγRIIb [14] = target: T5, cynoFcγRIIb; experiment: SPR
cynoFcγRIIIa [15] = target: T10, cynoFcγRIIIa; experiment: SPR
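For Fold vs WT IgG1 (off-rate) in this document: fold improvement over WT IgG1 so higher means slower dissociation than WT.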

T10 sequence (Q8SPW2 17-208): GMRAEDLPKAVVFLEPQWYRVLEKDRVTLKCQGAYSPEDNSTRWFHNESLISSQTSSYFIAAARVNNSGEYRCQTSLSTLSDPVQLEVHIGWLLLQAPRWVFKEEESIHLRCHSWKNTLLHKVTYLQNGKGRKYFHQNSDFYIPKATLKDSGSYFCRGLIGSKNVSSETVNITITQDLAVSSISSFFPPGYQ
T7 sequence (P08637 17-208): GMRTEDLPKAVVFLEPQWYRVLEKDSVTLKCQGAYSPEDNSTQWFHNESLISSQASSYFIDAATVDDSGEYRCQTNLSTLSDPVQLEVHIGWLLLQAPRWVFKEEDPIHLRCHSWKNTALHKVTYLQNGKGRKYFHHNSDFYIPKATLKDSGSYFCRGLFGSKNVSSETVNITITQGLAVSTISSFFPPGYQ
T9 sequence (P08637 17-208 F176V): as the sequence (P08637 17-208) above, with F160V counted along it
T8 sequence (P12314 16-288 limits assumed): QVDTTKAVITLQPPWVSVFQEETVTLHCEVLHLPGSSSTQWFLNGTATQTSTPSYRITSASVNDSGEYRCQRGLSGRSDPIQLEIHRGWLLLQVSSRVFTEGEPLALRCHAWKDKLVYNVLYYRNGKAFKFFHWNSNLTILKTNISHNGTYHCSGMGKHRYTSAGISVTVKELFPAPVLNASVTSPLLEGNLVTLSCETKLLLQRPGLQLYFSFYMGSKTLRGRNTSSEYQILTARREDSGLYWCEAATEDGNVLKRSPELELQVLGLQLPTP

Row | Binder | Fold vs WT IgG1 [2] [fold] | Kd [2] [nM] | Fold vs WT IgG1 [3] [fold] | Kd [3] [nM] | Fold vs WT IgG1 [4] [fold] | Kd [4] [nM] | Fold vs WT IgG1 [6] [fold] | Kd [6] [nM] | Fold vs WT IgG1 (Kd) (mFcγRIIb [11]) [fold] | binding result (cynoFcγRIIb [12]) | binding result [4] | also measured
1 | B1 | 0.0211 | 15.6 | 0.167 | 3870 | 1.54 | 953 | 0.758 | 1130 | – | – | – | binding result [1]: no binding; binding result [5]: no binding; binding result (mFcγRIV [7]): no binding; binding result (cynoFcγRIIb [8]): no binding; binding result (cynoFcγRIIIa [9]): no binding; binding result (mFcγRIIb [10]): no binding
2 | B2 | – | – | – | – | 11.4 | 129 | 5.69 | 151 | 0.029 | no binding | – | –
3 | B3 | – | – | – | – | – | – | – | – | 0.016 | no binding | no binding | –
4 | B4 | 23.2 | 0.0142 | 1.27 | 510 | 111 | 13.3 | 120 | 7.16 | 1.75 | – | – | Kd [1]: 516 nM; Fold vs WT IgG1 [5]: 3.74 fold; Kd [5]: 51.2 nM; Fold vs WT IgG1 (Kd) (mFcγRIV [13]): 0.726 fold; Fold vs WT IgG1 (off-rate) (mFcγRIV [13]): 1.54 fold; Fold vs WT IgG1 (Kd) (cynoFcγRIIb [14]): 1.59 fold; Fold vs WT IgG1 (off-rate) (cynoFcγRIIb [14]): 2.53 fold; Fold vs WT IgG1 (Kd) (cynoFcγRIIIa [15]): 3.88 fold; Fold vs WT IgG1 (off-rate) (cynoFcγRIIIa [15]): 1.68 fold; Fold vs WT IgG1 (off-rate) (mFcγRIIb [11]): 7.87 fold
5 | B5 | – | – | – | – | – | – | – | – | 2.63 | no binding | no binding | –
6 | B6 | 3.53 | 0.0934 | 1.1 | 590 | 3.6 | 408 | 3.73 | 230 | 2.01 | – | – | Fold vs WT IgG1 [1]: 6.32 fold; Kd [1]: 214 nM; Fold vs WT IgG1 [5]: 8.14 fold; Kd [5]: 23.5 nM; Fold vs WT IgG1 (Kd) (mFcγRIV [13]): 2.52 fold; Fold vs WT IgG1 (off-rate) (mFcγRIV [13]): 1.91 fold; Fold vs WT IgG1 (Kd) (cynoFcγRIIb [14]): 1.64 fold; Fold vs WT IgG1 (off-rate) (cynoFcγRIIb [14]): 1.99 fold; Fold vs WT IgG1 (Kd) (cynoFcγRIIIa [15]): 7.58 fold; Fold vs WT IgG1 (off-rate) (cynoFcγRIIIa [15]): 2.33 fold; Fold vs WT IgG1 (off-rate) (mFcγRIIb [11]): 2.91 fold
7 | B7 | – | – | – | – | – | – | – | – | 0.013 | no binding | no binding | –

Source: patent US20130315910A1 (Xencor, published 2013)
